The record followed here is the DeepSol protein solubility set.

The nature of the series: soluble on expression in E. coli; label from the status in PepcDB or PDB records.
Consider “MVTLEDMSQYLDEFLADARDRIDSLSNAILTLEKIVKEGGSEEEKTELINQIFRDAHTLKGTAATMGFMKLSETAHKMENIFDAIRNSQLELTPELVDLVLDFLDAIDAMVNNIEESGNEGDVDVSDLFERADEFLGGSKKEIKPEEKPKEAEKKEEKVAEEVPSAEGKVYYIKVKFQKDAPLKGVRAFLILSDLEERGEVIWTNPGREIIENGNLEGDVVEFRIVSETPKEELETVIKRHPEVESVEIVEEKKKEEAGEKAVEGKEYVVRVYFQPDTPLKGPRSYLILNDLEKIGEILSTNPSRQDIEEGNLIENKFFEVVLRTSESKEKISEILKKHPDVLNFTITEKEEEKKEEKKEAKKQPPKQPKKPPIIETPKVKISRVIKIDVGHLDKLMNLVGELVITKGRLEQIGERLGDRELFEALSTLSRLLTELQDEIMEMRLTPIAEVFNKFPRMVRDLARKMGKEVEFVMEGADIEVDRTILEKLGDALVHLLRNAVDHGIEPPEERVKLGKPRAGRVELIAKREKNHVVIIVRDDGRGIDPEKVKRKAVERGLITPEEAANLSDEEAINLIFLPGFSTADKVTDVSGRGVGMDVVKEVVKSMNGSISVQTEVGKGTTFILKLPISMAIIQALLIRVEDETYAIPINNILETIEVDPSILKTVGGKPVIVLRGEIIPVIMLHELFGLPAPQVDRFPAIIVDHGAQKVAIGVDELLHKRDIVIKSLGKFLSNVRGFAGATILGDGSVVLIIDIGGLLGGGYSG”, for which the “soluble on expression in E. coli” value is listed as “soluble”.

Consider “MVVAFLIGAGGMFAGMSLFGVNPAEVTQTISSGNASTAQGNLAKINEAYALIDSRYVEDVKDEKLVEGAIQGMLSTLKDPYSTYMDKETAKQFSESLDPELEGIGAEVNKTDGKLIIVSPIKGSPAEKIGIKPNDQILSVDGNSVKDLSREEAVLKIRGKKGTTVAIEIKRAGVADPIVFKIKREKIPIFTVFSSVKQESGKDIGYMQITSFAENTAKEFKDQLKELEKKNIKGLVIDVRGNPGGYLNSVEEILGEIMTDKKPMLQVEQRNGEKKKFSTELKERKPYPISVLIDNGSASASEILAGALKEGEGYDLIGEKTFGKGTVQQAVPFKDGSNIKLTMFKWLTPDGNWIHKKGIKPTVEVKQPDYYHATPIQIEKTLSYNANDVQVKHAQEMLKSLGYVPGREDGYFSKETESALKAFQNANKMEATGQLDKKTAEAIQTKIIEKIRSGENDLQLQSALKLMAK”, for which the “soluble on expression in E. coli” value was “not soluble”.

For “MVVCSVQRLLLNFDFSENRSRSYHFTMDGKQIATTIPPVFLFNVLESVSGTDDRVLEHHHHHH”, the “soluble on expression in E. coli” value is “not soluble”.

As to “MVVRSLLRVSRLTSASCRHASLAVSSTPKPYIPSVTGVQKSMPFDNLLEQYSRVHWDDSVTYDDPNVQKLFKSLMSGSRAALASAITLVESRHPTKRAQGNMLLKMVLDEEREKYKKFGRDSMIFRVGISGSPGVGKSSFIEALGAELTENRGKKVAVLTIDPTSAMTGGSVLGDLTRMQELSRNPKAYIRQSPTSGSLGGVTRGIHEAVILCEGAGYDIVIIETVGVGQSETSVSDMCDMMCLLLSPAHGDELQGVKRGIMEMSDLLVVTKDDGDLKAKAKMTQAEYISALKFMRPRLDVWRPKVMRSSIMDKESVSEVCSSLYEFWDTIGESGDLERRRQDQMKKWMWNHVKDEIMSVFQKHPKIAHLAPKLENEIRSGKITPGLAAETMIRTFFGV”, the “soluble on expression in E. coli” value is listed as “not soluble”.

Take “MVVSKMNKDAQMRAAINQKLIETGERERLKELLRAKLIECGWKDQLKAHCKEVIKEKGLEHVTVDDLVAEITPKGRALVPDSVKKELLQRIRTFLAQHASL”: the “soluble on expression in E. coli” value was “soluble”.

As for “MVYVKSLLRRADNFMYIVKKSSEARAALLVDLVNEEDYKELADKENIDITAVLTTHHHYDHCGGNEGFRRQFPNVMILGGDSRIPAMDRHVKHGDMAEFAGLQIKCLSTPCHTSGHICYHITNPAADSTSPGVVFTGDTLFIAGCGRFFEGTAPQMDVALNEILKNLPVETQIFPGHEYTVANLKFACHVEPGNEKAAQKLEWAQRQIEQGGFTVPSTVAEEKATNPFMRVRESEEIQKSIGTCDAVVGMAKLREMKNKF”, the “soluble on expression in E. coli” value was “not soluble”.

With “MWAAYFEKTLVYKQNVKKSRKSKKEDPAEAEKLMKQALEEYLPKYSELLPIILARGTVTLFKNLALTAKDAMTPKEVEPEEPTEEELAQQRRQQRAAAAPQQLEFKFEVAQGMKAVSTNDPEMEKKYAAENEVVAQKQSGATWTPDELASLVRLSTEKYPAGTPNRWEQMGRVLNRSAEDVIAMAGKMKQMKQEDYTKLLMTTIQQSVPVEEKSEDDWSQAEQKAFETALQKYPKGTDERWERISEEIGSKTKKQVMVRFKQLAEMIRKKKTNDT”, the “soluble on expression in E. coli” value is “not soluble”.

With “MWDLETDRVLNEIKTRNARKVLFQAPEGLKRAVEKEIEFLKTKIDAELMIWGETCFGACDLCDEEVTILGIDLIIHYGHEELSYVHSEIPVVFVHAYFKENEYFLKDVENILEKMENPTVTTTIQFKKALSKFNPVVILGCRAPVDNAENILFVGTGRFHPLMMAYKLKKTVKIYNPITREISEISDQEIKKLIKLRIGRVSKLLLNPPKKIGVVLSTKKGQCRLKSFENVIELLKKNNIEYIPIILNNLSQSYLFYKVDAYVICACPRIVMDDYQNYESTLLTPEELRMYLSNDFEYKFDEILENNFYLEHHHHHH”, the “soluble on expression in E. coli” value is “not soluble”.

On to “MWHSIEQAISVETGKSFYISEKKEISTRPASSSSFTCSYDNKEPPPNLSFKITDGHRSYFLKINNKDYLENFQAEAYSLKQLNSLANIASPNVTAIGTSLDKSFLVLDYIDFSKAKPMLWYQLGQQLAQMHYENRHGQFGWQHDNFIGSTIQPNHWSSNWTTFFSDQRIAWQLQLLSERSIMLGNIEHITQVCHDALLHHQVSPCLVHGDLWQGNTGFSGEKAMIFDPACYYGDREVDIAMTELFGHFPDDFYHGYQAEYPLDDGYEQRKLVYNFYHILNHANIFGGIYIDQAKATLSRIMSLPLHLEHHHHHH”, for which the “soluble on expression in E. coli” value is reported as “not soluble”.

For “MWTEQHVKEIDSIIRKKEDEQLSLPIMEQKLQINNRRYLGSKYKLLEFICKVVRENCTSVSSVADIFGGTGVVADRFNKEGKDIIVNDILYSNYLAYLTWFSNEKVNITKIEKLIKFFNESEPTEDNYVSINFGGTYFTEYNARKIGYVREEIEKMSDELNAREKAILITSLIYAMDKVANTVGHYDAYRRKLDSIKEIKLLMPEFNDGLNNGNKIFKEDANELVRKISADLIYIDTPYNSRQYGDAYHLLENIAEWEKPDLVGVAKKMIDRSHIKSDYCTMKATSAFADLISNIKGKYILVSYNNMAQKGVGRSNAKISSEEIVEILETRGTVEIFETNFQAYTTGKTNIDDHKEILYLCEVSR”, the “soluble on expression in E. coli” value was “not soluble”.

As to “MYAALFPGQGSHRVGMGRALYEASPAAKEVLDRAEAALPGLLKLMWEGPEEALTLTENQQPALLAAGYAAYRAFLEAGGKPPALPEGHSLGEWTAHVAAGTLELEDALRLVRLRGRYMQEAVPVGEGAMAAVLKLPLEEIQKALEGLEGVEIANLNAPEQTVISGRRQAVEEAAERLKERRARVVFLPVSAPFHSSLMAPARKRLAEDLAQVPLRRPRFPVYSNVTARPEEDPERIRALLLEQITAPVRWVEILRDMEARGVKRFLEFGSGEVLKGLVLRTLKEAEALSVQDPDSLRKALEVERA”, the “soluble on expression in E. coli” value is recorded as “soluble”.

For “MYADEVDKDRRTFKKNFSSARGSGIDGKWKRDMFQTANRSPKQNFTTKRRAQTNFVTKAGAAAAGLATRNISTASIRGRTAPAVVREIHTGPSTLIIKNLATTVTQEDLEELFEQYEPELVQLHYGPTGESNGCADLIVPHAQVAIIQKALEGVLLDGEPIEVLEANPPKQVSVFDRIKKVSRGNDFKAKNMRVVVKSKGGFQKRGARGDF”, the “soluble on expression in E. coli” value is given as “not soluble”.

Turning to “MYCIGCGAKIQTEAKNALGFLPAGALKKKIAERDQMEAVQAGDEGSEASIKTEDLYCQRCFRLRHYNEIAPTSLTDADFLRLLKEIGQHDALIVNVVDIFDFNGSLIPNLHKLTGGNDLLMVANKRDVLPKSLKVGKLTAWLREQAASRSLKPKDILVTSAQNKDDVAELMEAIEYYRRGRDVYVVGVTNVGKSTLINAIIKSASGSEDVITTSRFPGTTLDKIEIPLDEDSALIDTPGIIHRGQIAHYLEPEDLKYVSPRKEIKPKTYQLDPEQTLFFGGLARFDFISGERQGMTAYFDNEINVHRTKLEGATEFYEKHKGELLAPALVGAKLVRREFKITDKSDIVFSGLGWVRVPQKAVVAAWVPEGVDVVVRKALIGLEHHHHHH”, the “soluble on expression in E. coli” value was “soluble”.

As for “MYDVVGVRFKKAGKVYYFDPNQFDISENEFVIVETVRGIEYGKVVITKKQVDENDVVLPLKKVIRIANENDRTIVEENKHAAKEAYQVCQQKVVEHNLDMKLVDVEYTFDRNKIIFYFTADGRIDFRELVKDLAAIFRTRIELRQIGVRDEAKMLGGIGPCGRMLCCSTFLGDFEPVSIKMAKDQNLSLNPAKISGLCGRLMCCLKYENDEYEAAKEQLPDLDQRIQTPHGTGRVIGLNILERLIQVELVDKERIVEYTLDELVNKGVVSSQTTDLEHHHHHH”, the “soluble on expression in E. coli” value was “not soluble”.

As for “MYEAHFGLKQLPFTLTPNTSLFHGLSPHYEAIHTVLSAISMGEGIIKVTGEVGTGKTLVCRMLINELPSNVELLYLPNPVMNGHELRQALAKELWLDQSGDDIALIDRIHEKIIDLHAEGKLVVVFIDEAQALSDEALETLRLFGNLETDYKKLLQIVLFGQPELDERLQQHNLRQLRQRITFSALLRALNMNETVAYIRYRIAESGCENNPFSLVQMKAIWKATNGIPRLINQVCHKSLLIAFSEQVNNVPSKAVFNAIIDTADTVKPKHYFPTFWGWRVSLEHHHHHH”, the “soluble on expression in E. coli” value is on record as “soluble”.

Turning to “MYEGKVGFDFLGFTVRQFPVGKYHSGKSSSGKLLGYKTLITPSKAKLKIHAQKIGKLIDEHKAVPQSDLIAHLNPVIRGWTNYYSCVVSKRIFNQADTTLFSQLKAWAEHRHPNKSSRWSCQKYWQTVGSDNWVFKPHNQKIRLLKHRETRIVRHILEHHHHHH”, the “soluble on expression in E. coli” value is “not soluble”.

As to “MYEIIRMGVRNMLITFHSKVAAEVLMRTDDAAPLLRAAGKSFRDAIPERGVFTADQLQSAITGLERAIAAADRSPPDDDEPHPDKEPVHPIELAVGLHQRAFPLLDMMRKTAAAGADLTWEVSRGW”, the “soluble on expression in E. coli” value is listed as “not soluble”.

On to “MYGPGYAPYYGSPYGDPCYGPAYGPAYGPTYVQPIAQPVYVHDTRAEEACCAGACCMALFCCCAMNS”, for which the “soluble on expression in E. coli” value was “soluble”.

For “MYKHIVKRGETIASIARDYRTSVEALLRANGLTAASVIFPGQEIVIPHLPPKGSIPYTIHISISRRQLTLKHRGRTIRTYPIGVGKMVTATPVGDFVIVNRQPNPGGPFGAMWLSLSKIHYGIHGTNDPSSIGKYVSKGCIRMHNKDVLELASIVPNGTEVFIRP”, the “soluble on expression in E. coli” value is “not soluble”.

“MYKTFYSLSREPFAKETDPSEAYQGAAFQEALRALEYVKRTRGIGLLIGEPGAGKTFALRALKESLNPSLYHVVYFPLSTGGVMDFYRGLALGLGEEPKYRKVDLFRQIQQAIERLHHERRITPVFILDEMHLAKDAFLQDIAILFNFEMDSTNPFVLILAGLPHLQGKLRLNQHRPLDQRIIMRYRMGPMEKEEVAGYIEHRMKQAGAKHPIFTPSALEAIALQSRGWPRVINTLATTCLLYGHQLKKDVIDEEVVRMAAEEMGY”: the “soluble on expression in E. coli” value is listed as “not soluble”.

“MYLGRHFLAMTSKALFDTKILKVNPLSIIFSPDAHIDGSLPTITDPETEAALVEAARIIRDTDETVAFPTETVYGLGGSALNDNSVLSIYRAKNRPSDNPLITHVSSIDQLNRKVFNQPHLSGTSLFDNIPSIYRPLISSLWPGPLTILLPVPSSEHSALSKLTTADQPTFAVRIPANPVARALIALSDTPIAAPSANASTRPSPTLASHVYHDLKDKIPIILDGGACKVGVESTVVDGLCNPPTLLRPGGFTYEEIVKLGGEAWSLCKVENKKTVEKGEKVRTPGMKYRHYSPSAKVVLLVPHCEGDGILKGVDRMERLKRLIETELKANSNIKKIAILTSLKLRDSDLQSKIFNEPDFSSKTFIIERLGQSGEEIQTNLFAALRKVDENDKVDLIFVEGINEEGEGLAVMNRLRKAAANNCIQF”: the “soluble on expression in E. coli” value was “not soluble”.
